Experimental data reported in patent US20230235090A1 (HARBOUR BIOMED US, published 2023).
Substitutions are numbered along the chain they refer to. Names may count otherwise. Blank lines part the entries; values can stand above or below the binder they belong to.

What was measured:
human 4-1BB [1] = target: T1, human 4-1BB (human, UniProt Q07011 24-255); assay: FACS, CHO-K1/h4-1BB cells [L]
T1 construct: whole, on cells; also called CD137; TNFRSF9
Description: Antibody binding experiments at the cellular level were conducted using a CHO-K1 cell strain overexpressing human 4-1BB (CHO-K1/hu 4-1BB, Genscript, #M00538) and a CHO-K1 cell strain overexpressing cynomolgus monkey 4-1BB (CHO-K1/cyno 4-1BB, Genscript, #M00569). Briefly, the CHO-K1-hu 4-1BB and CHO-K1/cyno 4-1BB cells were digested, resuspended in F12K complete medium, and washed once with PBS. The cell density was adjusted to 1×10⁶ cells/mL with PBS. […] The cells were incubated at 4° C. for 1 h away from light. Thereafter, the cells in each well were rinsed twice with 100 μL of pre-cooled PBS, and centrifuged at 500 g at 4° C. for 5 min, and then the supernatant was discarded. […] The plate was incubated away from light at 4° C. for 30 min. The cells in each well were rinsed twice with 100 μL of pre-cooled PBS, and centrifuged at 500 g at 4° C. for 5 min, and then the supernatant was discarded. Finally, the cells in each well were resuspended in 200 μL of pre-cooled PBS, and the fluorescence signal values were read using a BD FACS CANTOII or an ACEA NovoCyte flow cytometer.

human 4-1BB [2] = target: T1, human 4-1BB; assay: FACS, CHO-K1/h4-1BB cells [A]
Description: (§1) Antibody binding experiments at the cellular level were conducted using a CHO-K1 cell strain overexpressing human 4-1BB (CHO-K1/h4-1BB, Gensript, #M00538), a CHO-K1 cell strain expressing cynomolgus monkey 4-1BB (CHO-K1/cyno4-1BB, Genscript, #M00569) and a CHO-K1 cell strain overexpressing mouse 4-1BB (CHO-K1/m4-1BB, Genscript, #M00568). Briefly, the CHO-K1/h4-1BB cells, CHO-K1/cyno 4-1BB cells and CHO-K1/m 4-1BB cells were digested and resuspended with PBS containing 2% FBS. The cell density was adjusted to 1×10⁶ cells/mL. […] The cells were incubated at 4° C. for 2 h away from light. Thereafter, the cells in each well were rinsed twice with 100 μL of a pre-cooled FACS buffer, PBS containing 2% FBS, and centrifuged at 500 g at 4° C. for 5 min, and then the supernatant was discarded. […] The plate was incubated away from light at 4° C. for 1 h. The cells in each well were rinsed twice with 100 μL of pre-cooled FACS buffer, and centrifuged at 500 g at 4° C. for 5 min, and then the supernatant was discarded. Finally, the cells in each well were resuspended in 200 μL of pre-cooled FACS buffer, and the fluorescence signal values were read using an ACEA Novocyte3000 flow cytometer.

human 4-1BB [3] = target: T1, human 4-1BB; assay: FACS, CHO-K1/hu 4-1BB cells [H]
Description: (§2) Antibody binding experiments at the cellular level were conducted using a CHO-K1 cell strain overexpressing human 4-1BB (CHO-K1-hu 4-1BB, Genescript) and a CHO-K1 cell strain overexpressing cynomolgus monkey 4-1BB (CHO-K1-cyno 4-1BB, Genescript). Briefly, the CHO-K1-hu 4-1BB and CHO-K1-cyno 4-1BB cells were digested and resuspended in DMEM complete medium, and the cell density was adjusted to 1×10⁶ cells/mL. […] The cells were incubated at 4° C. for 1 h away from light. Thereafter, the cells in each well were rinsed twice with 100 μL of pre-cooled PBS, and centrifuged at 500 g at 4° C. for 5 min, and then the supernatant was discarded. […] The plate was incubated away from light at 4° C. for 30 min. The cells in each well were rinsed twice with 100 μL of pre-cooled PBS, and centrifuged at 500 g at 4° C. for 5 min, and then the supernatant was discarded. Finally, the cells in each well were resuspended in 200 μL of pre-cooled PBS, and the fluorescence signal values were read using a BD FACS CANTOII.

cynomolgus monkey 4-1BB [4] = target: T2, cynomolgus monkey 4-1BB (cynomolgus monkey); assay: FACS, CHO-K1/cyno 4-1BB cells [G]
T2 construct: whole, on cells; also called CHO-K1-cyno 4-1BB; CHO-K1/cyno4-1BB
Description: as §2

cynomolgus monkey 4-1BB [5] = target: T2, cynomolgus monkey 4-1BB; assay: FACS, CHO-K1/cyno-4-1BB cells [B]
Description: as §1

human B7-H4 [6] = target: T3, human B7-H4 (human, UniProt Q7Z7D3 25-282); assay: FACS, SKBR3 cells [A]
T3 construct: whole, on cells; also called VTCN1; SK-BR-3 cell line highly expressing B7-H4
T3 sequence (looked up): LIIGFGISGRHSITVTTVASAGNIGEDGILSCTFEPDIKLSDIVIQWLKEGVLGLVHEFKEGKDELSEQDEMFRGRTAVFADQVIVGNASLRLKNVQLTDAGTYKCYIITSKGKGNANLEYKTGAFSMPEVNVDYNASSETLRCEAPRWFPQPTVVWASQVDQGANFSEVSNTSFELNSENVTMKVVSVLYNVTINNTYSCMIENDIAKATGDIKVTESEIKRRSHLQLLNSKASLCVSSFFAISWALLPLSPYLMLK

human B7-H4 [7] = target: T3, human B7-H4; assay: FACS, SK-BR-3 cells [A]
Description: (§3) This example is intended to investigate the in vitro binding activity of anti-human B7-H4 H2L2 monoclonal antibody to human/cynomolgus monkey/mouse B7-H4. Antibody binding experiments at the cellular level were conducted using a CHO-K1 cell strain overexpressing cynomolgus monkey B7-H4 (CHO-K1/cyno B7-H4, prepared in-house by Harbour Biomed), a CHO-K1 cell strain overexpressing mouse B7-H4 (CHO-K1/m B7-H4, prepared in-house by Harbour Biomed) and an SK-BR-3 cell line highly expressing human B7-H4 (ATCC® HTB-30). Briefly, the CHO-K1/cyno B7-H4 cells, CHO-K1/m B7-H4 cells or SK-BR-3 cells were digested and resuspended with PBS containing 2% BSA. The cell density was adjusted to 1×10⁶ cells/mL. […] The cells were incubated at 4° C. for 2 h away from light. Thereafter, the cells in each well were rinsed twice with 100 μL of pre-cooled PBS containing 2% BSA, and centrifuged at 500 g at 4° C. for 5 min, and then the supernatant was discarded. […] The plate was incubated away from light at 4° C. for 1 h. The cells in each well were rinsed twice with 100 μL of pre-cooled PBS containing 2% BSA, and centrifuged at 500 g at 4° C. for 5 min, and then the supernatant was discarded. Finally, the cells in each well were resuspended in 200 μL of pre-cooled PBS containing 2% BSA, and the fluorescence signal values were read using an ACEA Novocyte3000 flow cytometer.

human B7-H4 [8] = target: T3, human B7-H4; assay: FACS, MDA-MB-468 cells [A]
mouse B7-H4 = target: T4, mouse B7-H4 (mouse, UniProt Q7TSP5 25-257); assay: FACS, CHO-K1/m B7H4 cells [C]
T4 construct: whole, on cells; also called CHO-K1/m B7-H4; CHO-K1/mB7-H4
T4 sequence (looked up): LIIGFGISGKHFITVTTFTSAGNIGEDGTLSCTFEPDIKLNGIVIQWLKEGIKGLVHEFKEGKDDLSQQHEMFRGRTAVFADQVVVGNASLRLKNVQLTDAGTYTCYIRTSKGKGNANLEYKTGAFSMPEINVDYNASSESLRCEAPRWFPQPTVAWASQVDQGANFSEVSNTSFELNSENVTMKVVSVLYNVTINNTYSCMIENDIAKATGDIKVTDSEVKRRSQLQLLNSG
Description: as §3

cynomolgus monkey B7-H4 = target: T5, cynomolgus monkey B7-H4 (cynomolgus monkey, UniProt A0A2K5U6P5 25-282); assay: FACS, CHO-K1/cyno B7H4 cells [B]
T5 construct: whole, on cells; also called CHO-K1/cyno B7-H4; CHO-K1/cynoB7H4
T5 sequence: T3 sequence (looked up) with L53I, F242L, S252A
Description: as §3

human 4-1BB [9] = target: T1, human 4-1BB; assay: FACS, CHO-K1/hu 4-1BB cells [G]
Description: (§4) This example is intended to investigate the in vitro binding activity of anti-human 4-1BB HCAb and H2L2 monoclonal antibodies to human and cynomolgus monkey 4-1BB. Antibody binding experiments at the cellular level were conducted using a CHO-K1 cell strain overexpressing human 4-1BB (CHO-K1-hu 4-1BB, Genescript) and a CHO-K1 cell strain overexpressing cynomolgus monkey 4-1BB (CHO-K1-cyno 4-1BB, Genescript). Briefly, the CHO-K1-hu 4-1BB and CHO-K1-cyno 4-1BB cells were digested and resuspended in DMEM complete medium, and the cell density was adjusted to 1×10⁶ cells/mL. […] The cells were incubated at 4° C. for 1 h away from light. Thereafter, the cells in each well were rinsed twice with 100 μL of pre-cooled PBS, and centrifuged at 500 g at 4° C. for 5 min, and then the supernatant was discarded. […] The plate was incubated away from light at 4° C. for 30 min. The cells in each well were rinsed twice with 100 μL of pre-cooled PBS, and centrifuged at 500 g at 4° C. for 5 min, and then the supernatant was discarded. Finally, the cells in each well were resuspended in 200 μL of pre-cooled PBS, and the fluorescence signal values were read using a BD FACS CANTOII.

cynomolgus monkey 4-1BB [10] = target: T2, cynomolgus monkey 4-1BB; assay: FACS, CHO-K1/cyno 4-1BB cells [F]
Description: as §4

human 4-1BB [11] = target: T1, human 4-1BB; assay: FACS on CHO-K1-hu 4-1BB cells
human 4-1BB [12] = target: T1, human 4-1BB; assay: FACS, CHO-K1/hu 4-1BB cells [I]
Description: as §4

cynomolgus monkey 4-1BB [13] = target: T2, cynomolgus monkey 4-1BB; assay: FACS, CHO-K1/cyno 4-1BB cells [H]
Description: as §2

T1 sequence (Q07011 24-255): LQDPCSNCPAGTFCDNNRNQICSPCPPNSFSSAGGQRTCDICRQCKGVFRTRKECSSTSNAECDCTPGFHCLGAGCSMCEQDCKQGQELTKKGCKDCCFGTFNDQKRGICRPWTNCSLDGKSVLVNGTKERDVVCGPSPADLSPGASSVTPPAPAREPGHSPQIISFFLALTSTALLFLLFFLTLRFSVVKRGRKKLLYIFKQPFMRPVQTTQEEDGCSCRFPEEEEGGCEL

EC50 (human 4-1BB [1]): 17 nM
EC50 (human 4-1BB [2]): 18 nM
EC50 (human 4-1BB [3]): 1.29 nM
Maximum MFI (human 4-1BB [3]): 109000 MFI
EC50 (cynomolgus monkey 4-1BB [4]): 0.568 nM
EC50 (cynomolgus monkey 4-1BB [5]): 25.4 nM
B1: PR004469 (antibody, human IgG1, V domains shown)
VH: EVQLLESGGGLVQPGGSLRLSCAASGFTFSNYAMSWFRQPPETGLKWVSSIDASGGDTYYADSVKGRFTISRDNSKNTLYLQMNSLRAEDTAVYYCAKEGSHGTDDSHYDVDVWGQGTTVTVSS
notes: anti-4-1BB HCAb, human IgG1 Fc; also called PTM variant of PR001838 (G53A)

EC50 (human 4-1BB [9]): 0.537 nM
EC50 (cynomolgus monkey 4-1BB [10]): 2.29 nM
Maximum MFI (cynomolgus monkey 4-1BB [10]): 9660 MFI
B3: PR001842 (antibody, human IgG1, V domains shown)
VH: EVQLLESGGGLVQPGGSLRLSCAASGFTFSSYAMSWGRQAPGKGLEWVSAISGSGGSTYYADSVKGRFTISRDNSKNTLYLHMNSLRAEDTAVYYCAKEKVATTGDYYYDMDVWGQGTTVTVSS
notes: anti-4-1BB HCAb, human IgG1 Fc

The remaining lines, values behind:

B2: control antibody 1 (PR000157) (antibody, V domains shown)
VH: EVQLVQSGAEVKKPGASVKVSCKASGYTFTSYWIGWVRQAPGQGLEWIGDIYPGGGYTNYNEKFKGRVTITRDTSTSTAYLELSSLRSEDTAVYYCARLAGSSYRGAMDSWGQGTLVTVSS
VL: DIQMTQSPSSLSASVGDRVTITCKASQGFNKYVAWYQQKPGKAPKLLIYYTSTLQPGVPSRFSGSGSGRDYTLTISSLQPEDFATYYCLQYGDLLYAFGQGTKVEIKR
notes: also called Positive control 1; 1D11.v1.9varC2
EC50 (read off the curve) (human B7-H4 [6]): ~4 nM
EC50 (human B7-H4 [7]): 1.2 nM
Maximum MFI (human B7-H4 [7]): 266000 MFI
EC50 (read off the curve) (human B7-H4 [8]): ~6 nM
EC50 (mouse B7-H4): 1.73 nM
Maximum MFI (mouse B7-H4): 1.75e+06 MFI
EC50 (cynomolgus monkey B7-H4): 2.1 nM
Maximum MFI (cynomolgus monkey B7-H4): 1.99e+06 MFI

B4: PR007381 (antibody, human IgG1, V domains shown)
VH: B1 VH with F37V, P40A, E42G, T43K, K46E
notes: anti-4-1BB HCAb, human IgG1 Fc; also called germline variant of PR004469
binding result (human 4-1BB [11]): binds

B5: PR000448 (antibody, human IgG4 S228P, kappa, V domains shown)
VH: QVQLQQWGAGLLKPSETLSLTCAVYGGSFSGYYWSWIRQPPGKGLEWIGEIQHSGSTDSNPSLKGRVTFSVDTSKNQFSLKLNSVTAADTAVYYCARLTGPFDYWGQGTLVTVSS
VL: EIVMTQSPATLSVSPGERATLSCRASQSISSILAWYQQKPGQAPRLLIYGASTRATGIPARFSGSGSGTEFTLTISSLQSEDFAVYYCQQYYNWPLTFGGGTKVEIKR
notes: anti-4-1BB H2L2 recombinant fully human IgG antibody, human IgG1 / kappa
EC50 (human 4-1BB [12]): 0.947 nM
EC50 (cynomolgus monkey 4-1BB [13]): 1.06 nM
